Laboratory results as given in patent publication US20120121633A1, “HIV CD4 BINDING SITE BASED COVALENT IMMUNOGEN COMPOSITIONS” (priority 2010, published 2012).
Positions count from the first letter of the chain named.

B1: 4B2-F8: murine IgG MAb from KLH-E-416-433 immunization (antibody, V domains shown)
VH: QVQLQQSGAELVRPGASVKLSCMALGYTFTDYEIHWVKQTPVHGLEWIGGFHPGSGGGAYSQKFKGKATLIADKSSSIAYMEVISLTSEDSAVYYCTRFRYSSFAMVYWGQGTSVTVSS
VL: DIVMSQSPSSLAVSAGEKVTMSCKSSQSLLNSRTRKNYLAWYQQKPGQSPKLLIYWASTRESGVPDRFTGSGSGTDFTLTINSVQAEDLAVYYCKQSYNLWTFGGGTKLEIK
B2: 9F3-A7: murine IgG MAb from KLH-E-416-433 immunization (antibody, V domains shown)
VH: QVQLQQSGAELVRPGASVKLSCKALGYTFTDYEMHWVKQTPVHGLEWIGGIYPGSGGTAYNQKFKGKATLTADKSSSTAYMELSSLTSEDSAVYYCTKFRFSSFAMDYWGQGTSVTVSS
VL: B1 VL with S22R, N82S, S97F
B3: 2G9: murine IgM MAb from KLH-E-416-433 immunization (antibody, V domains shown)
VH: QVQLKQSGPGLVQPSQSLSITCTVSGFSLTSYGVHWVRQSPGKGLEWLGVIWSGGSTDYNAAFISRLSISKDNSKSQVFFKMNSLQANDTAIYYCARNKDYGSSYDYYAMDYWGQGTSVTVSS
VL: DIQMTQTTSSLSASLGDRVTISCRASQDISNYLNWYQQKPDGTVKLLIYYTSRLHSGVPSRFSGSGSGTDYSLTISNLEQEDIATYFCQQGNTLPTFGGGTKLEIKRA

Legend:
[1] = system: subtype C clinical HIV isolate ZA009 (97ZA009); test: HIV neutralization, PBMC/clinical isolate assay, strain ZA009; assay type: cell-based; conditions: MAb clones from KLH-E-416-433 immunized mice
Text: FIG. 12. […] A, 416-433 and 301-324 epitope sequences from the autologous subtype B strain of IgA donor 2866 and heterologous subtype C strain ZA009 used for neutralization assays. […] Host cells, PBMCs; virus isolate, R5-dependent subtype C strain ZA009. IC50, 50% neutralization concentration. Dashed lines, 95% confidence limits. […] Pooled IgA (I19-21 donors 2857, 2866 and 2886) was fractionated on agarose-conjugated as in FIG. 8. […] Host cells, PBMCs; virus, strain ZA009.
FIG. 19. […] Abs were fractionated by affinity chromatography on agarose-conjugated E-416-433. Plotted are the neutralization potencies (IC50) expressed per unit mass Ab content (sum of IgM, IgG and IgA measured by ELISA using class-specific Abs as in FIG. 8). IC50 computed from dose-response curves using the CCR5-dependent subtype C strain 97ZA009. […] Noncovalently and covalently bound fractions were recovered, respectively, by pH 2.7 elution and 2-PAM elution.
Neutralization of clinical HIV isolates obtained from the NIH AIDS Reagent Repository is tested using phytohemagglutinin-activated human PBMCs pooled from 4-12 donors.^44 The virus is incubated with the test Ab sample in quadruplicate to ensure reliability. The reaction mixtures are added to PBMCs in 96-well plates. Infection is monitored using p24 enzyme-immunoassay kits. […] The stock HIV strain ZA009 is used to infect PBMC in the presence of the Ab. Infection proceeds overnight and cells are washed and resuspended in RPMI media containing the Ab. After 7 days the cell-free supernatant is harvested and used to infect a new aliquot of stimulated PBMCs (second passage). The virus is passaged 10 times with a gradual (2-fold) increase in Ab concentration with each passage. A virus aliquot is saved at each passage for sequencing.^112 Viral supernatants are titered at each passage using a fresh batch of PBMCs. The gp120 gene will sequenced following RT-PCR as described.^113

BSA-E-416-433 = BSA-E-416-433 (Human immunodeficiency virus type 1 group M subtype B, UniProt P04578, C418S/K429E); conditions: inhibited by gp120, Bt-E-416-433 and sCD4, not by Sh416-433 or ovalbumin
Protocol: FIG. 21. […] IgM 2G9 binding to BSA-E-416-433 (70 ng/well) was tested in the absence or presence of increasing concentrations of Bt-E-416-433, sCD4, gp120, control Sh416-433 and control ovalbumin (OVA). Y-axis values are computed as follows 100x[A490 with competitor/A490 without competitor]. Methods as in ref 2.

Row | Molecule | HIV neutralizing activity [1] | specificity of binding shown by competitive inhibition (BSA-E-416-433)
1 | B1 | neutralizing activity | –
2 | B2 | neutralizing activity | –
3 | B3 | neutralizing activity | Specificity for 421-433 CD4BS sequence
